Laboratory results taken from article PMC9044925.

Target: PTP-CIF3 (Trypanosoma brucei)
Experiment: co-IP; PTP-tagged protein precipitated from T. brucei lysate with IgG-Sepharose beads, 30 min at 4°C, IP buffer, five washes; 3HA-tagged partner detected by anti-HA immunoblot; complementation lines induced with tetracycline

Going from “CIF1-3HA (ectopic, full-length CIF1) (natural protein)” to CIF1-ΔIDR1-3HA (domain or fragment), the percent of the input protein immunoprecipitated falls from 50% to 24%.

Work on CIF1-ΔIDR2-3HA (natural protein) yielded a percent of the input protein immunoprecipitated of 72%.

Target: CIF1 (endogenous) (Trypanosoma brucei (endogenous in T. brucei cells))
Experiment: co-IP; endogenous CIF1 or TbPLK precipitated from T. brucei lysate with anti-CIF1 or anti-TbPLK antibody and protein A-Sepharose beads, 30 min at 4°C, IP buffer; 3HA-tagged CIF3* and mutants detected by anti-HA immunoblot; band intensity by ImageJ, normalised to CIF1 and compared with the input

Compared with “CIF3*-3HA (full-length recoded, RNAi-resistant CIF3) (natural protein)”, CIF3*-ΔCC1-3HA (domain or fragment) is lower in percent of the input protein immunoprecipitated: 21% for the first, 16% for the second.

Compared with CIF3*-ΔCC2-3HA (natural protein), CIF3*-ΔCC3-3HA (natural protein) is lower in percent of the input protein immunoprecipitated: 31% for the first, 3% for the second.
